Literature values in PMC6679586.

Target: Activin A mature domain mature domain (Homo sapiens) (UniProt P08476)

- Kd: 5 nM
Substance: Activin A prodomain prodomain (from UniProt P08476)
